In assay [1] the target is T1, R3 (RHAMM-R3) peptide/HLA-A*02:01 complex on T2 cells (human).
T1 construct: Control target of the phage staining of T2 cells; also called T2 cells pulsed with R3 peptide; RHAMM 3 (R3)
As to the kind of experiment: flow cytometry, phage on T2 + R3 peptide; secondary only 118, unstained 91.1. On the technique in general: Flow cytometry measures light scatter and fluorescence of single cells or particles in a stream.

For assay [2], the target named is T2, HLA-A*02:01 on T2 cells alone (no peptide added) (human).
T2 construct: TAP-deficient T2 cells without pulsed peptide; negative control target, and the HLA molecule whose stabilisation by peptides is read in the T2 stabilization assay; also called HLA-A*02 molecule; HLA-A2 molecule
As to the kind of experiment: flow cytometry, phage on T2 without peptide; secondary only 125, unstained 99.8.

The target in assay [3] is T2, HLA-A*02:01 on T2 cells alone (no …). Put plainly: flow cytometry, phage on T2 without peptide.
The target of assay [4] is T3, EXT017 (Foxp3-7) peptide/HLA-A*02:01 complex, recombinant (human).
T3 construct: The BLI and SPR paragraphs only say 'EXT017 peptide/HLA-A*02:01 complex'; also called EXT017 peptide/HLA-A*02:01 complex; biotinylated single chain Foxp3p/HLA-A0201 complex
As to the kind of experiment: SPR. Background: In SPR one partner is held on a chip, and binding of the other changes the refractive index at the surface.

Assay [5] has as its target T3, EXT017 (Foxp3-7) peptide/HLA-A*02:01 …. Put plainly: SPR; printed under the head 'ka [1/Ms]': the heads of c3 and c4 are evidently interchanged.
Assay [6] shares this target. As to the kind of experiment: SPR; printed under the head 'kd [1/s]': the heads of c3 and c4 are evidently interchanged (0.005167/1.12E+07 = 0.46 nM).
Assay [7] has the same target. As to the kind of experiment: SPR; printed under the head 'kd [1/s]': the heads of c3 and c4 are evidently interchanged (0.01222/5.97E+07 = 0.205 nM).

B1: (FoxP4)_#2 (scFv)
scFv (VL-linker-VH-His/HA tag): QSVVTQPPSVSGAPGQRVTISCTGSSSNIGAGFDVHWYQQLPGTAPKLLIYGNSNRPSGVPDRFSGSKSATSASLAITGLQAEDEADYYCQSYDSSLSGVVFGGGTKLTVLGSRGGGGSGGGGSGGGGSLEMAQVQLVQSGAEVKKPGSSVKVSCKTSGGTFSSYAISWVRQAPGQGLEWMGGIIPIFGTANYAQRFQGRVTITADESTNTVYMELSSLRSEDTAVYYCARESWYLDEWGQGTLVTVSSTSGQAGQHHHHHHGAYPYDVPDYAS
notes: also called EXT018-2; EXT018-02 scFv phage clone
In the case of B1, the “Median:FITC-A” value in assay [1] was determined as 147; in assay [2] it was 157. In addition, the binding result in assay [3] is recorded as “no binding”.

B2: EXT017-32 mouse IgG1 (antibody, V domains shown)
VH: EVQLVESGGGVVQPGRSLRLSCAASGFTFNNHAMHWVRQAPGKGLEWVAVISFDGDDKFYADSVKGRFTISRDNSRNTLFLQMNNLRPEDTAVYYCSRDPYHFASGSYSYFDYWGQGTLVTVSS
VL: QSVLTQPPSVSVAPGKTARITCGGNNIGSKSVHWYQQKPGQAPVLVIYYDSDRPSGIPERFSGSNSGNTATLTISRVEAGDEADYYCQVWDSSSDHYVFGTGTKVTVLG
notes: Mouse IgG1 format of clone #32 made by Eureka Therapeutics; conjugated to APC for flow cytometry of Tregs; also called EXT017-32 mIgG; EXT017-32 mIgG1
With B2, the dissociation constant Kd (in general, the equilibrium constant for the complex coming apart) in assay [4] came out at 0.462 nM. The koff (as a rule, a measure of how fast the partners let go of each other) in assay [5] amounted to 0.00517 s⁻¹. For the same molecule, in assay [6], the association rate constant (kon) – broadly, the rate constant with which the complex forms – came out at 1.12e+07 M⁻¹ s⁻¹.

B3: EXT017-32 human IgG1 (antibody, V domains shown)
VH: B2 VH
VL: B2 VL
notes: Full-length human IgG1 with matching human lambda or kappa light chain constant region; Fc-enhanced (afucosylated); also called EXT017-32 hIgG; EXT017-32-hIgG1
Turning to B3, the association rate constant (kon) in assay [7] worked out at 5.97e+07 M⁻¹ s⁻¹. Further, the dissociation constant (Kd) in assay [4] is 0.205 nM. Moreover, in assay [5], the off-rate (koff) was 0.0122 s⁻¹.

The values above are taken from patent US20190284262A1 (Memorial Sloan Kettering, published 2019).
